# Test results reported in publication PMC4301919, “Helical Defects in MicroRNA Influence Protein Binding by TAR RNA Binding Protein”.
# T1: TRBP-ΔC (UniProt Q15633-2 9-215)
# T1 sequence: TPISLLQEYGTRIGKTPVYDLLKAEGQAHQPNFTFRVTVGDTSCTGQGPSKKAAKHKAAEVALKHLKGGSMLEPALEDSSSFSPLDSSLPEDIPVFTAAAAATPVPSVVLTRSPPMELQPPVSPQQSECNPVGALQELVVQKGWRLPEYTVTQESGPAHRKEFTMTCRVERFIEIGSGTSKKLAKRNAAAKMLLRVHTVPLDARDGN
# T2: TRBP-dsRBD2 (UniProt Q15633-2 139-215)
# T2 sequence: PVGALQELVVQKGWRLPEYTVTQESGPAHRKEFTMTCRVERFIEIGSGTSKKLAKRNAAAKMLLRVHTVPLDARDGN
# T3: TRBP-dsRBD1 (UniProt Q15633-2 9-85)
# T3 sequence: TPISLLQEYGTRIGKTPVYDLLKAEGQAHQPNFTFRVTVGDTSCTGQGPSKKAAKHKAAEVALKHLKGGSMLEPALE
# B1: ds33 (dsRNA)
# RNA 1: GGUCAGCAGUGCCUUAGCAGCACGUAAAUAUGG
# RNA 2: CCAUAUUUACGUGCUGCUAAGGCACUGCUGACC
# B2: ds22 (dsRNA)
# RNA 1: GUCAGCAGUGCCUUAGCAGCAC
# RNA 2: GUGCUGCUAAGGCACUGCUGAC
# B3: pre-mir-16-1 (structured_RNA)
# RNA: UAGCAGCACGUAAAUAUUGGCGUUAAGAUUCUAAAAUUAUCUCCAGUAUUAACUGUGCUGCUGAA
# B4: ds12 (dsRNA)
# RNA 1: GUCAGCAGUGCC
# RNA 2: GGCACUGCUGAC
# B5: ds44 (dsRNA)
# RNA 1: GGUCAGCAGUGCCUUAGCAGCACGUAAAUAUUGGCGUUAAGACC
# RNA 2: GGUCUUAACGCCAAUAUUUACGUGCUGCUAAGGCACUGCUGACC
# B6: miR-16-1/miR-16-1* (dsRNA)
# RNA 1: UAGCAGCACGUAAAUAUUGGCG
# RNA 2: CCAGUAUUAACUGUGCUGCUGAA
# B7: U-bulge (dsRNA)
# RNA 1: GGUCAGCACGUAAAUAUUGUCC
# RNA 2: GGACAGUAUUUACUGUGCUGAUC
# B8: ds16 (dsRNA)
# RNA 1: GUCAGCAGUGCCUUAG
# RNA 2: CUAAGGCACUGCUGAC
# B9: A-mismatch (dsRNA)
# RNA 1: GGUCAGCACGUAAAUAUUGUCC
# RNA 2: GGACAGUAUUAACGUGCUGUAC
# What was measured:
# [1] = molecular target: T1, TRBP-ΔC; experiment: EMSA; apparent Kd; nH >12; 50 mM sodium cacodylate pH 7.0, 50 mM potassium glutamate, 5% glycerol; EMSA 0.5 pM RNA, 30 min at room temperature, gel 0.25X TBE at 10 C; CD at 10 C with 5-15 uM RNA; details: protein: recombinant; label: 5'-32P top strand (EMSA); blunt
# [2] = molecular target: T2, TRBP-dsRBD2; experiment: EMSA; apparent Kd; nH 3.1; 50 mM sodium cacodylate pH 7.0, 50 mM potassium glutamate, 5% glycerol; EMSA 0.5 pM RNA, 30 min at room temperature, gel 0.25X TBE at 10 C; CD at 10 C with 5-15 uM RNA; details: protein: recombinant; label: 5'-32P top strand (EMSA); blunt
# [3] = molecular target: T3, TRBP-dsRBD1; experiment: EMSA; apparent Kd; nH 2.9; 50 mM sodium cacodylate pH 7.0, 50 mM potassium glutamate, 5% glycerol; EMSA 0.5 pM RNA, 30 min at room temperature, gel 0.25X TBE at 10 C; CD at 10 C with 5-15 uM RNA; details: protein: recombinant; label: 5'-32P top strand (EMSA); blunt
# [4] = molecular target: T3, TRBP-dsRBD1; experiment: EMSA; apparent Kd; nH 1.5; 50 mM sodium cacodylate pH 7.0, 50 mM potassium glutamate, 5% glycerol; EMSA 0.5 pM RNA, 30 min at room temperature, gel 0.25X TBE at 10 C; CD at 10 C with 5-15 uM RNA; details: protein: recombinant; label: 5'-32P top strand (EMSA); blunt
# [5] = molecular target: T1, TRBP-ΔC; experiment: EMSA; apparent Kd; nH 4; 50 mM sodium cacodylate pH 7.0, 50 mM potassium glutamate, 5% glycerol; EMSA 0.5 pM RNA, 30 min at room temperature, gel 0.25X TBE at 10 C; CD at 10 C with 5-15 uM RNA; details: protein: recombinant; label: 5'-32P top strand (EMSA); blunt
# [6] = molecular target: T2, TRBP-dsRBD2; experiment: EMSA; apparent Kd; nH 2.7; 50 mM sodium cacodylate pH 7.0, 50 mM potassium glutamate, 5% glycerol; EMSA 0.5 pM RNA, 30 min at room temperature, gel 0.25X TBE at 10 C; CD at 10 C with 5-15 uM RNA; details: protein: recombinant
# [7] = molecular target: T1, TRBP-ΔC; experiment: EMSA; apparent Kd; nH 1.1; 50 mM sodium cacodylate pH 7.0, 50 mM potassium glutamate, 5% glycerol; EMSA 0.5 pM RNA, 30 min at room temperature, gel 0.25X TBE at 10 C; CD at 10 C with 5-15 uM RNA; details: protein: recombinant; label: 5'-32P; hairpin, 16 bp stem, UUCG loop
# [8] = molecular target: T3, TRBP-dsRBD1; experiment: EMSA; apparent Kd; nH 1.3; 50 mM sodium cacodylate pH 7.0, 50 mM potassium glutamate, 5% glycerol; EMSA 0.5 pM RNA, 30 min at room temperature, gel 0.25X TBE at 10 C; CD at 10 C with 5-15 uM RNA; details: protein: recombinant, label: 5'-32P, hairpin, 16 bp stem
# [9] = molecular target: T2, TRBP-dsRBD2; experiment: EMSA; apparent Kd; nH 2.4; 50 mM sodium cacodylate pH 7.0, 50 mM potassium glutamate, 5% glycerol; EMSA 0.5 pM RNA, 30 min at room temperature, gel 0.25X TBE at 10 C; CD at 10 C with 5-15 uM RNA; details: protein: recombinant; label: 5'-32P; hairpin, 16 bp stem, UUCG loop
# [10] = molecular target: T3, TRBP-dsRBD1; experiment: EMSA; apparent Kd; nH 1.0; 50 mM sodium cacodylate pH 7.0, 50 mM potassium glutamate, 5% glycerol; EMSA 0.5 pM RNA, 30 min at room temperature, gel 0.25X TBE at 10 C; CD at 10 C with 5-15 uM RNA; details: protein: recombinant, label: 5'-32P, hairpin, 16 bp stem
# [11] = molecular target: T1, TRBP-ΔC; experiment: EMSA; apparent Kd; nH 4.1; 50 mM sodium cacodylate pH 7.0, 50 mM potassium glutamate, 5% glycerol; EMSA 0.5 pM RNA, 30 min at room temperature, gel 0.25X TBE at 10 C; CD at 10 C with 5-15 uM RNA; details: protein: recombinant; label: 5'-32P; hairpin, 16 bp stem, U4 loop
# [12] = molecular target: T1, TRBP-ΔC; experiment: EMSA; apparent Kd; nH 1.6; 50 mM sodium cacodylate pH 7.0, 50 mM potassium glutamate, 5% glycerol; EMSA 0.5 pM RNA, 30 min at room temperature, gel 0.25X TBE at 10 C; CD at 10 C with 5-15 uM RNA; details: protein: recombinant; label: 5'-32P; hairpin with 1-nt U-bulge and A-A mismatch
# [13] = molecular target: T1, TRBP-ΔC; experiment: EMSA; apparent Kd; nH 1.9; 50 mM sodium cacodylate pH 7.0, 50 mM potassium glutamate, 5% glycerol; EMSA 0.5 pM RNA, 30 min at room temperature, gel 0.25X TBE at 10 C; CD at 10 C with 5-15 uM RNA; details: protein: recombinant; label: 5'-32P top strand (EMSA); blunt
# [14] = molecular target: T1, TRBP-ΔC; experiment: EMSA; apparent Kd; nH 3.1; 50 mM sodium cacodylate pH 7.0, 50 mM potassium glutamate, 5% glycerol; EMSA 0.5 pM RNA, 30 min at room temperature, gel 0.25X TBE at 10 C; CD at 10 C with 5-15 uM RNA; details: protein: recombinant; label: 5'-32P; hairpin, 16 bp stem, U6 loop
# [15] = molecular target: T2, TRBP-dsRBD2; experiment: EMSA; apparent Kd; nH >2; text says bound; 50 mM sodium cacodylate pH 7.0, 50 mM potassium glutamate, 5% glycerol; EMSA 0.5 pM RNA, 30 min at room temperature, gel 0.25X TBE at 10 C; CD at 10 C with 5-15 uM RNA; details: protein: recombinant, label: 5'-32P, hairpin, 16 bp stem
# [16] = molecular target: T2, TRBP-dsRBD2; experiment: EMSA; apparent Kd; nH 4.3; 50 mM sodium cacodylate pH 7.0, 50 mM potassium glutamate, 5% glycerol; EMSA 0.5 pM RNA, 30 min at room temperature, gel 0.25X TBE at 10 C; CD at 10 C with 5-15 uM RNA; details: protein: recombinant; label: 5'-32P top strand (EMSA); blunt
# [17] = molecular target: T3, TRBP-dsRBD1; experiment: EMSA; apparent Kd; nH 2.6; 50 mM sodium cacodylate pH 7.0, 50 mM potassium glutamate, 5% glycerol; EMSA 0.5 pM RNA, 30 min at room temperature, gel 0.25X TBE at 10 C; CD at 10 C with 5-15 uM RNA; details: protein: recombinant; label: 5'-32P top strand (EMSA); blunt
# [18] = molecular target: T1, TRBP-ΔC; experiment: EMSA; apparent Kd; nH >14; 50 mM sodium cacodylate pH 7.0, 50 mM potassium glutamate, 5% glycerol; EMSA 0.5 pM RNA, 30 min at room temperature, gel 0.25X TBE at 10 C; CD at 10 C with 5-15 uM RNA; details: protein: recombinant; label: 5'-32P top strand (EMSA); blunt
# [19] = molecular target: T1, TRBP-ΔC; experiment: EMSA; apparent Kd; nH 1.1; text gives error 0.1; 50 mM sodium cacodylate pH 7.0, 50 mM potassium glutamate, 5% glycerol; EMSA 0.5 pM RNA, 30 min at room temperature, gel 0.25X TBE at 10 C; CD at 10 C with 5-15 uM RNA; details: protein: recombinant; label: 5'-32P top strand; imperfect duplex with U-bulge and A-A mismatch
# [20] = molecular target: T1, TRBP-ΔC; experiment: EMSA; apparent Kd; nH 5; 50 mM sodium cacodylate pH 7.0, 50 mM potassium glutamate, 5% glycerol; EMSA 0.5 pM RNA, 30 min at room temperature, gel 0.25X TBE at 10 C; CD at 10 C with 5-15 uM RNA; details: protein: recombinant; label: 5'-32P top strand; duplex with 1-nt U-bulge
# [21] = molecular target: T1, TRBP-ΔC; experiment: EMSA; apparent Kd; nH 3.2 (1.4 in loop section); 50 mM sodium cacodylate pH 7.0, 50 mM potassium glutamate, 5% glycerol; EMSA 0.5 pM RNA, 30 min at room temperature, gel 0.25X TBE at 10 C; CD at 10 C with 5-15 uM RNA; details: protein: recombinant; label: 5'-32P top strand (EMSA); blunt
# [22] = molecular target: T1, TRBP-ΔC; experiment: EMSA; apparent Kd; nH 2.5; 50 mM sodium cacodylate pH 7.0, 50 mM potassium glutamate, 5% glycerol; EMSA 0.5 pM RNA, 30 min at room temperature, gel 0.25X TBE at 10 C; CD at 10 C with 5-15 uM RNA; details: protein: recombinant; label: 5'-32P; hairpin, 16 bp stem, U8 loop
# [23] = molecular target: T1, TRBP-ΔC; experiment: EMSA; apparent Kd; nH 2.7; 50 mM sodium cacodylate pH 7.0, 50 mM potassium glutamate, 5% glycerol; EMSA 0.5 pM RNA, 30 min at room temperature, gel 0.25X TBE at 10 C; CD at 10 C with 5-15 uM RNA; details: protein: recombinant; label: 5'-32P top strand; duplex with 1x1 A-A mismatch
binder,measurement,setting,value
B1,Kd,[1],200 ± 20 nM
same,Kd,[2],1000 ± 80 nM
same,Kd,[3],900 ± 300 nM
B2,Kd,[4],3500 ± 200 nM
same,Kd,[5],600 ± 50 nM
same,Kd,"[6]; label: 5'-32P top strand (EMSA), blunt",1700 ± 100 nM
GUCAGCAGUGCCUUAGUUCGCUAAGGCACUGCUGAC (structured_RNA) [ds16-tetra-stable],Kd,[7],500 ± 50 nM
same,Kd,[8]; UUCG loop,9000 ± 1000 nM
same,Kd,[9],5000 ± 700 nM
GUCAGCAGUGCCUUAGUUUUCUAAGGCACUGCUGAC (structured_RNA) [ds16-tetra-U],Kd,[10]; U4 loop,7000 ± 900 nM
same,Kd,[11],700 ± 50 nM
same,Kd,"[6]; label: 5'-32P, hairpin, 16 bp stem, U4 loop",4000 ± 900 nM
B3,Kd,[12],610 ± 20 nM
B4,Kd,[13],2000 ± 300 nM
GUCAGCAGUGCCUUAGUUUUUUCUAAGGCACUGCUGAC (structured_RNA) [ds16-hexa-U],Kd,[10]; U6 loop,10000 ± 3000 nM
same,Kd,[14],610 ± 50 nM
same,Kd,[15]; U6 loop,> 4000 nM
B5,Kd,[16],800 ± 60 nM
same,Kd,[17],800 ± 50 nM
same,Kd,[18],60 ± 10 nM
B6,Kd,[19],1100 ± 10 nM
B7,Kd,[20],300 ± 30 nM
B8,Kd,[21],800 ± 70 nM
GUCAGCAGUGCCUUAGUUUUUUUUCUAAGGCACUGCUGAC (structured_RNA) [ds16-octa-U],Kd,[8]; U8 loop,8000 ± 3000 nM
same,Kd,[15]; U8 loop,> 6000 nM
same,Kd,[22],410 ± 50 nM
B9,Kd,[23],1780 ± 80 nM
